Data: patent US20160130324A1

Target: rhC1s (human) (UniProt P09871)
Experiment: inhibition of C1s cleavage of a colorimetric peptide substrate, mean OD value; C is the midpoint of the 4-parameter fit

Sequence of rhC1s (human) (P09871 16-688 limits assumed): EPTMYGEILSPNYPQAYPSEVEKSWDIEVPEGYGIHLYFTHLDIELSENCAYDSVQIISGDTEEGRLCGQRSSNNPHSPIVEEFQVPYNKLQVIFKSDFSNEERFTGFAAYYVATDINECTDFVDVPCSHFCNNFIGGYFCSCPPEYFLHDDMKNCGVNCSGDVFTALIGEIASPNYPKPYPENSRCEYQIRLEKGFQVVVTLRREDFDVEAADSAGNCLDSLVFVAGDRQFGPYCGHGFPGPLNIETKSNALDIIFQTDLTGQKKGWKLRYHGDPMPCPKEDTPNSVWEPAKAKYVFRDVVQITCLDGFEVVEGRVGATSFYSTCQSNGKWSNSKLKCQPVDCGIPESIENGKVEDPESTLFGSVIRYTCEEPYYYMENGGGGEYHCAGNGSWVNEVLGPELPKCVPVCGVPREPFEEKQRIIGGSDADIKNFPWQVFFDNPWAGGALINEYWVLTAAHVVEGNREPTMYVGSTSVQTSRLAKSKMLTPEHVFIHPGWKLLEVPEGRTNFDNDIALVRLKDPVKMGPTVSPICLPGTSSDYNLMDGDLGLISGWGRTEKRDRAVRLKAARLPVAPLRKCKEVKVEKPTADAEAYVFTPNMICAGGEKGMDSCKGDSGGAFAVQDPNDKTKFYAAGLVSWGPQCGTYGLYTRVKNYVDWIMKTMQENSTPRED

Row | IC50 | Substance
1 | 1.67 nM | HSA-C1-INH
2 | 1.45 nM | HSA_D3-C1-INH
